Patent US20240059799A1 (Pfizer, published 2024)

Legend:
Test in all cases: SPR, Biacore 8K+, 37 C; antibody captured by anti-human Fc, cytokine injected
[1] = target: T1, rat IL-12 (rat, UniProt P43432 23-335; Q9R103 23-215, limits assumed)
T1 chain 1: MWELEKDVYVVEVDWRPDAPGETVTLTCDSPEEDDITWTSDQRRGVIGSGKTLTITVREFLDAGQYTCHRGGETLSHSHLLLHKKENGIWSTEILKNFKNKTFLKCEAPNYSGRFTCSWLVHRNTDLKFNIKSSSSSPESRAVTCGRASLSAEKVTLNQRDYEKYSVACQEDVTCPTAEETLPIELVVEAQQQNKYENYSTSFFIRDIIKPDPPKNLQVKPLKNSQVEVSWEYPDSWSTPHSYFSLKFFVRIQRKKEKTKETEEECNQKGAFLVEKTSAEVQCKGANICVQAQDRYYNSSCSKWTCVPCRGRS
T1 chain 2: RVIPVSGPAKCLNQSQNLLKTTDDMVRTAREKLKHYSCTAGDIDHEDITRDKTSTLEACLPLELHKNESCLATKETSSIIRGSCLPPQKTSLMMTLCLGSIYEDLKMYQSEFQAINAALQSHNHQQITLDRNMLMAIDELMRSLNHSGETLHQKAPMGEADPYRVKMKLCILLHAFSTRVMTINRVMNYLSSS
Description: (§1) In order to determine binding to TL1A, kinetic assays were conducted at 37° C. using a collection rate of 10 Hz on a Biacore™ T200 instrument (GE Healthcare). […] For the analysis of the p40 binding arm, kinetic assays were conducted at 37° C. using a collection rate of 10 Hz on a Biacore™ 8 K+ instrument (GE Healthcare).

[2] = target: T2, rabbit IL-12 (rabbit)
T2 chain 1: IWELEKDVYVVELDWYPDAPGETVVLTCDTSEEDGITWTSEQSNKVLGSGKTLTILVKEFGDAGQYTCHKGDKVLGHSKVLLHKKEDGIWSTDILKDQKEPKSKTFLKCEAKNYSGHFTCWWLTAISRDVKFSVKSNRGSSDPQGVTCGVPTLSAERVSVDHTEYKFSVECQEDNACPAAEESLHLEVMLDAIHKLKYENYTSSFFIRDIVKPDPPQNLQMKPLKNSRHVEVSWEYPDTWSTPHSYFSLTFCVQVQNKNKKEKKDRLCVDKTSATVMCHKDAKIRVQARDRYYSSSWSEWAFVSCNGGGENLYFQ
T2 chain 2: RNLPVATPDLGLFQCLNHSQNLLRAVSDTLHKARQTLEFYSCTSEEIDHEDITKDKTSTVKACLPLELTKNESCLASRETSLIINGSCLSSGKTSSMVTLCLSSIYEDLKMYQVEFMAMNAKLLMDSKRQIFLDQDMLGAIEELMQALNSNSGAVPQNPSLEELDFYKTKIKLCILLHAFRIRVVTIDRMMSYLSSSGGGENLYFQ
Description: as §1

[3] = target: T3, rat IL-23 (rat, UniProt P43432 23-335; Q91Z84 22-196, limits assumed)
T3 chain 1: T1 chain 1
T3 chain 2: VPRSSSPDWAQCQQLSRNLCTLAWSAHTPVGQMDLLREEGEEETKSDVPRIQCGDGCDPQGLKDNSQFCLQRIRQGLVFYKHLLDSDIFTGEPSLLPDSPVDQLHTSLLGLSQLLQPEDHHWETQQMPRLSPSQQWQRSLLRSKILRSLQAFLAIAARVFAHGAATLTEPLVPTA
Description: as §1

[4] = target: T4, human IL-23 (human, UniProt P29460 23-328; Q9NPF7 20-189)
T4 construct: also called recombinant human IL-23 (p40/p19)
T4 sequence 1: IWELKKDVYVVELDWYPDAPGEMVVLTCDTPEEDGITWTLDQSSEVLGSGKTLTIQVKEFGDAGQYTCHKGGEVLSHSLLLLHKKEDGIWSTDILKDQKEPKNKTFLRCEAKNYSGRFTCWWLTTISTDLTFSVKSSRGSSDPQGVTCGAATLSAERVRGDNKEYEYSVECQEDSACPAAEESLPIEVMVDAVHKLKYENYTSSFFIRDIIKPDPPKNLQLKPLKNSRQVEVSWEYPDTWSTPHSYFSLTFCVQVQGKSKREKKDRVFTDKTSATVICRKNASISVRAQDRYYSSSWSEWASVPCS
T4 sequence 2: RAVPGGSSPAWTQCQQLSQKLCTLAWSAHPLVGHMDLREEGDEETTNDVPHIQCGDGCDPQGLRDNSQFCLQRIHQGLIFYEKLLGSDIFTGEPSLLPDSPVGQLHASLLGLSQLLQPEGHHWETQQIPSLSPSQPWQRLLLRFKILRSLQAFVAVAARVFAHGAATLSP
Description: as §1

[5] = target: T5, mouse IL-12 (mouse, UniProt P43432 23-335; P43431 23-215)
T5 sequence 1: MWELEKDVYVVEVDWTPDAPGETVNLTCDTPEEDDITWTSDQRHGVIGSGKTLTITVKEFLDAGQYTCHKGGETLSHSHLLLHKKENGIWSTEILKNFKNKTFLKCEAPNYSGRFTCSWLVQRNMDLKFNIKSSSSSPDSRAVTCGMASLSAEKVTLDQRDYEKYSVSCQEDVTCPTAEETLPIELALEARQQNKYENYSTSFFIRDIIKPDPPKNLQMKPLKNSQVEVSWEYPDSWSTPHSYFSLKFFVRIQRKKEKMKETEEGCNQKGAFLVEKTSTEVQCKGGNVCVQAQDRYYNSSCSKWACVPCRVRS
T5 sequence 2: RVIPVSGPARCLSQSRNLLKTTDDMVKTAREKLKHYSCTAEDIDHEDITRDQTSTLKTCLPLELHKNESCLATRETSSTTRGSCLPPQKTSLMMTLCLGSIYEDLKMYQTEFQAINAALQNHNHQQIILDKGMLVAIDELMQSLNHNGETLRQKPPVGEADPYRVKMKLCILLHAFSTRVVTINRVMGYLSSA
Description: as §1

binding result [1]: no binding (tested: 200 nM)
binding result [2]: no binding (tested: 200 nM)
binding result [3]: no binding (tested: 200 nM)
Kd [4]: 0.104 nM
koff [4]: 0.000294 s⁻¹
kon [4]: 2.82e+06 M⁻¹ s⁻¹
binding result [5]: no binding (tested: 200 nM)
B1: p40TL1A-0033 bispecific antibody (bispecific antibody, human IgG1, kappa)
heavy: EVQLVQSGAEVKKPGESLKISCKGSGYSFTTYWLGWVRQMPGKGLDWIGIMSPVDSDIRYSPSFQGQVTMSVDKSITTAYLQWNSLKASDTAMYYCARRRPGQGYFDFWGQGTLVTVSSASTKGPSVFPLAPSSKSTSGGTAALGCLVKDYFPEPVTVSWNSGALTSGVHTFPAVLQSSGLYSLSSVVTVPSSSLGTQTYICNVNHKPSNTKVDKKVEPKSCDKTHTCPPCPAPEAAGAPSVFLFPPKPKDTLMISRTPEVTCVVVDVSHEDPEVKFNWYVDGVEVHNAKTKPREEQYNSTYRVVSVLTVLHQDWLNGKEYKCKVSNKALPAPIEKTISKAKGQPREPQVCTLPPSREEMTKNQVSLWCLVKGFYPSDIAVEWESNGQPENNYKTTPPVLDSDGSFFLYSKLTVDKSRWQQGNVFSCSVLHEALHSHYTQKSLSLSPGK
light: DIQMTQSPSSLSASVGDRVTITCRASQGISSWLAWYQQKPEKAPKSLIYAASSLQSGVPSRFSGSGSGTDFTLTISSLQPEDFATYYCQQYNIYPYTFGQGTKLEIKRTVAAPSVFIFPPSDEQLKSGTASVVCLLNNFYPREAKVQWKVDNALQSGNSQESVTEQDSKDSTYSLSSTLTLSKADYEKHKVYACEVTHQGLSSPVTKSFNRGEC
chain 1: not shown
chain 2: QVQLVQSGAEVKKPGASVKVSCKASGYDYTYYGISWVRQAPGQGLEWMGWISTYNTGTHYAPSLQGRVTMTTDTSTSTAYMELRSLRSDDTAVYYCARESYYGSGAFRGGMDVWGQGTTVTVSSASTKGPSVFPLAPSSKSTSGGTAALGCLVKDYFPEPVTVSWNSGALTSGVHTFPAVLQSSGLYSLSSVVTVPSSSLGTQTYICNVNHKPSNTKVDKKVEPKSC
notes: Single cell KiH, modified Fd format; IgG1 effector-function-minimized Fc with LS mutations
